PMC3150277, “Crystal Structure of PrgI-SipD: Insight into a Secretion Competent State of the Type Three Secretion System Needle Tip and its Interaction with Host Ligands” (PLoS Pathogens, 2011)

Biological target: T1, SipD 127-343, as it stands in the PrgI-SipDΔD1 fusion protein (S. enterica serovar typhimurium strain …, UniProt Q56026 127-343)
T1 construct: SipD of S. enterica serovar typhimurium strain SL1344, amino acids 127 to 343; In the crystal it is joined on one chain, C-terminal of PrgI and the linker Gly-Gly-Ser-Gly-Gly; also called SipDΔD1 (in the fusion); source: E. coli BL21(DE3), purified as part of the PrgI-SipDΔD1 fusion protein
T1 sequence: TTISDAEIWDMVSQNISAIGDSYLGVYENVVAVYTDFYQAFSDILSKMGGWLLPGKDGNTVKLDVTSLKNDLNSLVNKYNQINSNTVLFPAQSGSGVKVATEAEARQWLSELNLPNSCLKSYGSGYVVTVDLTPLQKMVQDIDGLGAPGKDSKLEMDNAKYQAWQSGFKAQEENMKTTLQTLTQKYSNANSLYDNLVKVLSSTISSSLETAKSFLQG
Test: crystal structure; PrgI-SipDΔD1 fusion protein, X-ray, 2.4 Å apo and 2.19 Å soaked with deoxycholate; two copies in the asymmetric unit
Conditions: both partners purified

B1: PrgI, wildtype, as it stands in the PrgI-SipDΔD1 fusion protein (natural protein)
chain: MATPWSGYLDDVSAKFDTGVDNLQTQVTEALDKLAAKPSDPALLAAYQSKLSEYNLYRNAQSNTVKVFKDIDAAIIQNFR
notes: wildtype PrgI of S. enterica serovar typhimurium strain SL1344; In the crystal it is joined on one chain through Gly-Gly-Ser-Gly-Gly to SipD 127-343; also called needle subunit PrgI; source: E. coli BL21(DE3), purified as part of the PrgI-SipDΔD1 fusion protein; not shown: His-tag, N-terminal, cleaved
binding result: binds
